For this data set, the target named is T1, LSF (TFCP2) (Homo sapiens, UniProt Q12800 SEQ:1-502).
T1 sequence: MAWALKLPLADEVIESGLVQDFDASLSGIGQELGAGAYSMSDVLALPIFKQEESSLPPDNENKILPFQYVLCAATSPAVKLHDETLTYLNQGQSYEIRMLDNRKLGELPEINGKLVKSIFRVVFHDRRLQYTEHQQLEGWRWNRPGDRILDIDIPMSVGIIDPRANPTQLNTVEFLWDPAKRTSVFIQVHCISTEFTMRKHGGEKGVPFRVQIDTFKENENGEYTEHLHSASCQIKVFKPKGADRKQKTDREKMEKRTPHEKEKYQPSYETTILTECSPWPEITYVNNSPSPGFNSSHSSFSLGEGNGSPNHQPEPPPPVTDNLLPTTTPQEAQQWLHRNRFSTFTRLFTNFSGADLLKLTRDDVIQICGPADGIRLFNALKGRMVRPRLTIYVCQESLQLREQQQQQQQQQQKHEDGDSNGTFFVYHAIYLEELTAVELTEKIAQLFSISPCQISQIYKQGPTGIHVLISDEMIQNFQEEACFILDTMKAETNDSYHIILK
Nature of the data set: EMSA; 40 mM KCl, 15 mM HEPES pH 7.9, 1 mM EDTA, 0.5 mM DTT, 5% glycerol, poly d(I-C), 30 C; FQI1 enhances binding at low and inhibits at higher concentration. As to conditions: chain copies: 4 stated (tetrameric on DNA); label: 32P (radiolabelled). The procedure:
LSF was translated in vitro as previously described¹⁶ for use in EMSAs. Protein was preincubated with inhibitor or DMSO and then incubated with 0.5 μg poly d(I-C) for 15 min at 4° C. in 40 mM KCl, 15 mM HEPES pH 7.9, 1 mM EDTA, 0.5 mM DTT, 5% glycerol. Finally, radiolabelled double-stranded DNA ([…]—SEQ ID NO: 5- and its complement) were added for a 30-min incubation at 30° C. Results were visualized using a PhosphorImager and quantified using ImageQuant software.
A general note: In EMSA bound probe runs differently from free probe, usually more slowly.

B1: LSF EMSA site (dsDNA)
DNA 1: TGGCTGGTTATGGCTGGTCAGACTAG
DNA 2: CTAGTCTGACCAGCCATAACCAGCCA
On to B1, for which the binding result was “binds”.

Source of the values: patent US20180051033, “INHIBITORS OF LATE SV40 FACTOR (LSF) AS CANCER CHEMOTHERAPEUTICS” (TRUSTEES OF BOSTON UNIVERSITY, published 2018).
